This note sets out measurements from PMC10343166.

Assay [1] deals with Puromycin-sensitive aminopeptidase F433A mutant, with C-terminal polyhistidine sequence (human) (UniProt P55786). Put plainly: competitive inhibition of enzyme activity (Dixon plots); apparent Ki from inhibition of Ala-4MβNA cleavage at increasing peptide concentrations; 20 mM HEPES pH 7.0, 2 mM BME, 37°C; 20 μM (PSA^wt) or 100 μM (PSA^F433A) Ala-4MβNA; triplicate.
For assay [2], the target named is Puromycin-sensitive aminopeptidase, wild type, with C-terminal polyhistidine sequence (kinetic studies) (human) (UniProt P55786). Described as above.
Puromycin-sensitive aminopeptidase, wild type, with C-terminal polyhistidine sequence (kinetic studies) (human), sequence (P55786 whole entry): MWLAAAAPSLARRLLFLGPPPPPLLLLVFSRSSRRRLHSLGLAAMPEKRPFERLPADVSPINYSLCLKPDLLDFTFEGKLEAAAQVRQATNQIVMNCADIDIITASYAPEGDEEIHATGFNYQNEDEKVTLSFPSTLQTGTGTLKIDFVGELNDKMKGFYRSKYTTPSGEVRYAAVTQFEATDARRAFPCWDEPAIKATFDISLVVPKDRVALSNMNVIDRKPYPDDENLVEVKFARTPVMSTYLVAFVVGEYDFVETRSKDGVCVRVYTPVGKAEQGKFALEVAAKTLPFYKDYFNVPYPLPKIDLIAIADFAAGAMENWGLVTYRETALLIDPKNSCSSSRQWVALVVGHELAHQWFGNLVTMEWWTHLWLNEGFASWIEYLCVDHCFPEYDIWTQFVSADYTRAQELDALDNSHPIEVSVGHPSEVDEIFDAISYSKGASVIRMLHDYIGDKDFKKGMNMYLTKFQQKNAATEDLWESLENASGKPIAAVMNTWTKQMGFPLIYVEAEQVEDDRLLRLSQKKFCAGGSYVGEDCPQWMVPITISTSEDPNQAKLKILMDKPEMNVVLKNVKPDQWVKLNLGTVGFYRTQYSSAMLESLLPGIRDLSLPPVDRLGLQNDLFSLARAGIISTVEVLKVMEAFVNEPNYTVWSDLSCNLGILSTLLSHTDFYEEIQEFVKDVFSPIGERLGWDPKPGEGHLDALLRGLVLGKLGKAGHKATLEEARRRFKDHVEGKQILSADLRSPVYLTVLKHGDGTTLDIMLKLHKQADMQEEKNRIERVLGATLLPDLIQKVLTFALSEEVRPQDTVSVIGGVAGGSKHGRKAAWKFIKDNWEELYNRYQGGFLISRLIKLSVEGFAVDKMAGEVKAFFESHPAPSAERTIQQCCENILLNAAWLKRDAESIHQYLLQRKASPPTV

Puromycin-sensitive aminopeptidase F433A mutant, with C-terminal polyhistidine sequence (human), sequence (P55786 whole entry F433A): as the sequence (P55786 whole entry) above, with F433A counted along it

For Dynorphin A(1–17) (peptide), the results for the Ki in assay [1] and in assay [2] were 2.6 µM and 0.44 µM, respectively.
